Measurements published in US20220072094A1.

Biological target: PLCγ1 (mouse, endogenous, hippocampus) (mouse) (UniProt Q62077)
Test: cell-based or functional assay

decrease in pY783 PLCγ1 immunoreactivity in hippocampal synaptic membranes, trkB^PLC/PLC against trkB^WT/WT after normal saline (Western blot): 38%
pY783 PLCγ1 immunoreactivity in hippocampal synaptic membranes after status epilepticus, trkB^WT/WT over trkB^PLC/PLC (Western blot): 1.84 fold
Substance: TrkB Y816F (mouse, trkB PLC/PLC knock-in) (from UniProt P15209 32-821) (receptor)
